From patent US20220143214A1

How the values were obtained:
[1] = molecular target: LY6A (Ly6a, C57BL/6J mouse) (mouse (C57BL/6J)) (UniProt P05533); assay: AAV library bound to Ly6a-transfected HEK293T cells, NGS
[2] = molecular target: LY6C1 (Ly6c1, C57BL/6J mouse, splice variant 1) (mouse (C57BL/6J)) (UniProt P0CW02); assay: AAV library bound to Ly6c1-transfected HEK293T cells, NGS
UniProt P0CW02, sequence (P0CW02 27-109 limits assumed, change not shown): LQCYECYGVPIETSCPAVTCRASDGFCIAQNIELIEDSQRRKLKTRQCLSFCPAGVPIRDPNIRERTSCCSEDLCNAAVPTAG

UniProt P05533, sequence (P05533 27-112 limits assumed): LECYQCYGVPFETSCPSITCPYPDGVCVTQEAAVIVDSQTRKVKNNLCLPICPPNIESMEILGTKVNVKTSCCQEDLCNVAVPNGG

Substance	fold enrichment (log2) [1] [log2]	fold enrichment (log2) [2] [log2]
AAV9 K449R 7-mer variant TYGGYSQ	-0.34	2.02
AAV9 K449R 7-mer variant GSYGYSS	-3.32	2.48
AAV9 K449R 7-mer variant EKKQYSS	0.89	4.45
AAV9 K449R 7-mer variant RSDFKDI	3.45	-2.44
AAV9 K449R 7-mer variant VKGGYSS	0.07	3.3
AAV9 K449R 7-mer variant SYQGYSS	1.47	5.21
AAV9 K449R 7-mer variant GESRPFI	3.32	-2.08
AAV9 K449R 7-mer variant GVDRPFK	3.84	-1.13
AAV9 K449R 7-mer variant RLSFKDV	2.39	-1.62
AAV9 K449R 7-mer variant EDHRYSS	0.17	3.4
AAV9 K449R 7-mer variant SNDRPFI	5.43	-1.02
AAV9 K449R 7-mer variant LKKGYST	1.72	2.96
AAV9 K449R 7-mer variant YENRPFV	2.23	-3.32
AAV9 K449R 7-mer variant SLSKPFS	2.19	-2.08
AAV9 K449R 7-mer variant HEHRYST	-4.06	3.06
AAV9 K449R 7-mer variant QDKGYSS	-3.55	2.61
AAV9 K449R 7-mer variant DRKGYSA	-0.39	2.77
AAV9 K449R 7-mer variant LLRGASS	-0.33	2.96
AAV9 K449R 7-mer variant DSQRPFI	2.63	-3.55
AAV9 K449R 7-mer variant GDNRPFK	2.65	0.57
AAV9 K449R 7-mer variant SLDFKNI	4.61	-1.29
AAV9 K449R 7-mer variant PYQGASS	-0.53	5.24
AAV9 K449R 7-mer variant TSFKPFP	3.11	0.48

Substance	fold enrichment (log2) [1] [log2]	fold enrichment (log2) [2] [log2]
AAV9 K449R 7-mer variant KTQFKDV	2.09	-3.55
AAV9 K449R 7-mer variant TKSTPFI	2.6	-1.85
AAV9 K449R 7-mer variant DVKYGSS	-0.36	4.92
AAV9 K449R 7-mer variant WRQGYAS	-0.09	2.89
AAV9 K449R 7-mer variant DKQKPFL	4.6	0.94
AAV9 K449R 7-mer variant VAVFKNV	4.23	-0.91
AAV9 K449R 7-mer variant RIDNPFK	4.48	-1.89
AAV9 K449R 7-mer variant MRTFGSA	1	3.97
AAV9 K449R 7-mer variant VRPGWST	1.02	5.89
AAV9 K449R 7-mer variant SSEKPFQ	2.69	-3.55
AAV9 K449R 7-mer variant LRTAYSS	1.13	5.12
AAV9 K449R 7-mer variant TDTRPFI	4.19	-3.32
AAV9 K449R 7-mer variant STTFKDI	3.44	-3.32
AAV9 K449R 7-mer variant VPRYGSS	-1.01	3.55
AAV9 K449R 7-mer variant SKSGYSA	-3.32	2.14
AAV9 K449R 7-mer variant NKVGYST	-3.74	3.13
AAV9 K449R 7-mer variant STRGYSA	1.08	3.55
AAV9 K449R 7-mer variant SIARPFV	3.79	-3.55
AAV9 K449R 7-mer variant NRGGYAS	-0.18	4.53
AAV9 K449R 7-mer variant DMERPFK	4.51	-3.91
AAV9 K449R 7-mer variant TRFGSST	1.29	3.63
AAV9 K449R 7-mer variant LKYGTST	1.24	4.88
AAV9 K449R 7-mer variant ASSKPFL	3.9	1.19

Substance	fold enrichment (log2) [1] [log2]	fold enrichment (log2) [2] [log2]
AAV9 K449R 7-mer variant SSTGYSS	-1.93	4
AAV9 K449R 7-mer variant NMERPFR	2.96	0.95
AAV9 K449R 7-mer variant GSERPFL	3.78	-4.2
AAV9 K449R 7-mer variant LRMGASS	0.91	4.17
AAV9 K449R 7-mer variant SINKPFV	4.74	-0.3
AAV9 K449R 7-mer variant AGSFKDI	3.96	-2.87
AAV9 K449R 7-mer variant QTLFKNI	3.07	-0.72
AAV9 K449R 7-mer variant LKTGMSS	-0.66	2.74
AAV9 K449R 7-mer variant DTKWSSS	0.53	4.11
AAV9 K449R 7-mer variant VKVGFSS	-2.25	4.22
AAV9 K449R 7-mer variant TYKSGSS	1.95	3.78
AAV9 K449R 7-mer variant HNVFKNP	2.09	0.33
AAV9 K449R 7-mer variant VNRGYSS	0.89	5.18
AAV9 K449R 7-mer variant MNIGYSA	-1.48	2.4
AAV9 K449R 7-mer variant TLAYPFK	3.93	-0.72
AAV9 K449R 7-mer variant LSMGYST	-3.91	2.97
AAV9 K449R 7-mer variant TRTSGAS	0.43	3.85
AAV9 K449R 7-mer variant LYAGRSS	1.03	4.13
AAV9 K449R 7-mer variant GKHFSST	2.64	4.25
AAV9 K449R 7-mer variant VAERPFK	6.38	1.22
AAV9 K449R 7-mer variant IATGYSQ	-3.74	2.18
AAV9 K449R 7-mer variant SHTKPFA	4.79	0.97
AAV9 K449R 7-mer variant AKAGYAS	-0.03	4.54

Substance	fold enrichment (log2) [1] [log2]	fold enrichment (log2) [2] [log2]
AAV9 K449R 7-mer variant NSPGWSS	-0.93	3.08
AAV9 K449R 7-mer variant TRDLPFK	4.34	-1.36
AAV9 K449R 7-mer variant SKGSYST	1.54	2.74
AAV9 K449R 7-mer variant QSAGYST	-1.58	2.55
AAV9 K449R 7-mer variant DKYNFSS	-0.13	3.43
AAV9 K449R 7-mer variant VTHGYSS	-0.84	3.25
AAV9 K449R 7-mer variant YLKGYSA	0.15	4.46
AAV9 K449R 7-mer variant GKTHGYS	1.65	3.87
AAV9 K449R 7-mer variant ESRGFSS	-0.58	4.7
AAV9 K449R 7-mer variant EIRGYSS	0.75	4.92
AAV9 K449R 7-mer variant TITFKDV	5.15	-0.78
AAV9 K449R 7-mer variant AADRPFL	2.73	-3.32
AAV9 K449R 7-mer variant MVRNYST	-0.94	3.25
AAV9 K449R 7-mer variant TVTGYSS	-3.91	3.22
AAV9 K449R 7-mer variant FRIGGSS	1.34	4.89
AAV9 K449R 7-mer variant TGTSPFK	2.22	-3.32
AAV9 K449R 7-mer variant MERYGSS	-2.28	3.83
AAV9 K449R 7-mer variant KQYQGST	1.54	4.88
AAV9 K449R 7-mer variant TVMAPFK	5.53	-0.19
AAV9 K449R 7-mer variant QNARPFV	1.52	1.42
